Laboratory results taken from PMC2883946.

How the values were obtained:
[1] = target: 14-3-3ε (UniProt P62259); assay: FLAG IP, 14-3-3 isoform immunoblot; settings: reference: FLAG-AS160 wild type; sites S318,T568,S588,T642,S751
[2] = target: 14-3-3β (UniProt Q9CQV8); assay: FLAG IP, 14-3-3 isoform immunoblot; settings: reference: FLAG-AS160 wild type; sites S318,T568,S588,T642,S751

binding against the reference [1]: weaker | binding against the reference [2]: weaker
Substance: FLAG-AS160 (from UniProt O60343) FLAG-AS160 5P
